{
  "source": "patent US20240400693A1",
  "about": "(Chugai, published 2024)",
  "binders": {"B1": {"name": "DQN0344H0976/L0591//DQN0385H1255/L0605-F6.v2 (bispecific antibody)", "heavy 1": "QVQLVESGGGVVQPGGSLRLSCAASGFTFSSAYWMVWVRQAPGQGLEWMGAVYGGSDTTYYAKWTEGRFTISRDTSKNTLYLQMNSLRAEDTAVYYCAREPLNYYYYGELNLWGQGTLVTVSSASTKGPSVFPLAPSSKSTSGGTAALGCLVKDYFPEPVTVSWNSGALTSGVHTFPAVLKSSGLYSLSSVVTVPSSSLGTQTYICNVNHKPSNTKVDKRVEPKSCDKTHTCPPCPAPELRRGPSVFLFPPKPKDTLMISRTPEVTCVVVDVSHEDPEVKFNWYVDGVEVHNAKTKPREEQYNSTYRVVSVLTVLHQDWLNGKEYKCKVSNKALPAPIEKTISKAKGQPREPQVYTLPPSREEMTKNQVSLTCLVKGFYPSDIAVEWESNGQPENNYKTTPPVLDSDGSFFLYSKLTVDKSRWQEGNVFSCSVLHEALHAHYTREELSLSP", "light 1": "DIQMTQSPSSLSASVGDRVTITCQATEEIYSGLAWYQQKPGKAPKLLIYYVSTLYEGIPARFSGSGSGTDFTLTISSLEPEDFAVYYCQTYEDVSAVTFGQGTKVEIKRTVAAPSVFIFPPSDEQLKSGTAEVVCLLNNFYPREAKVQWKVDNALQSGNSEESVTEQDSKDSTYSLSSTLTLSKADYEKHKVYACEVTHQGLSSPVTKSFNRGEC", "heavy 2": "QVQLVESGGGVVQPGRSLRLSCAASGFTFSEWYFMSWVRQAPGKGLEWVASIDTGSGSIDYAGWVEERFTISRDNSKNTLYLQMNSLRAEDTAVYYCARDIGIDYNFWGPGTLVTVSSASTKGPSVFPLAPSSKSTSGGTAALGCLVEDYFPEPVTVSWNSGALTSGVHTFPAVLESSGLYSLSSVVTVPSSSLGTKTYICNVNHKPSNTKVDKRVEPKSCDKTHTCPPCPAPELRRGPSVFLFPPKPKDTLMISRTPEVTCVVVDVSHEDPEVKFNWYVDGVEVHNAKTKPREEQYNSTYRVVSVLTVLHQDWLNGKEYKCKVSNKALPAPIEKTISKAKGQPREPQVYTLPPSRKEMTKNQVSLTCLVKGFYPSDIAVEWESNGQPENNYKTTPPVLDSDGSFFLYSKLTVDKSRWQQGNVFSCSVLHEALHAHYTRKELSLSP", "light 2": "DIQMTQSPSSLSASVGDRVTITCQTTQSISSYLNWYQQKPGQPPKLLIYYASTKAEGIPARFSGSGSGTDFTLTISSLEPEDFAVYYCHYGISKVSFGQGTKVEIKRTVAAPSVFIFPPSDEQLKSGTAKVVCLLNNFYPREAKVQWKVDNALQSGNSKESVTEQDSKDSTYSLSSTLTLSKADYEKHKVYACEVTHQGLSSPVTKSFNRGEC"}, "B2": {"name": "DQN0344H1013/L0620//DQN0385H1521/L0605-F6.v2 (bispecific antibody)", "heavy 1": "B1 heavy 1 with G16R, L112V", "light 1": "B1 light 1 with E28N, Y55A, E56Y", "heavy 2": "B1 heavy 2 with S30E, E31S, G63E, E67G", "light 2": "B1 light 2"}, "B3": {"name": "DQN0344H1013/L0620//DQN0385H1270/L0681-F6.v2 (bispecific antibody)", "heavy 1": "B1 heavy 1 with G16R, L112V", "light 1": "B1 light 1 with E28N, Y55A, E56Y", "heavy 2": "B1 heavy 2 with G63E, E67G", "light 2": "B1 light 2 with S67L"}},
  "test_in_all_cases": "cell-based or functional assay",
  "key": {"[1]": {"molecular_target": "HLA-DQ2.2 on HBBB2.2 cells loaded with 33mer gliadin peptide (human; wheat)"}, "[2]": {"molecular_target": "HLA-DQ2.5 on IHW09023 cells loaded with BC hordein peptide (human; barley)"}, "[3]": {"molecular_target": "HLA-DQ2.5 on IHW09023 cells loaded with gamma 2 gliadin peptide (human; wheat)"}, "[4]": {"molecular_target": "HLA-DQ2.5 on IHW09023 cells loaded with 33mer gliadin peptide (human; wheat)"}, "[5]": {"molecular_target": "HLA-DQ2.5 on IHW09023 cells loaded with omega1/2 gliadin peptide (human; wheat)"}, "[6]": {"molecular_target": "HLA-DQ2.5 on IHW09023 cells loaded with gamma 4d gliadin peptide (human; wheat)"}, "[7]": {"molecular_target": "HLA-DQ2.5 on IHW09023 cells loaded with gamma 3 gliadin peptide (human; wheat)"}, "[8]": {"molecular_target": "HLA-DQ2.5 on IHW09023 cells loaded with gamma 1 gliadin peptide (human; wheat)"}, "[9]": {"molecular_target": "HLA-DQ2.5 on IHW09023 cells loaded with gamma 4a gliadin peptide (human; wheat)"}},
  "note": "Positions count from the first letter of the chain named.",
  "data": [
    {"binder": "B1", "values": [
      {"measurement": "IC50 (ng/ml)_HLA-DQ2.2, α1a gliadin TCR, 25 µM 33mer gliadin", "setting": "[1]", "value": 1.72, "unit": "ng/mL"},
      {"measurement": "IC50 (ng/ml)_HLA-DQ2.2, α2 gliadin TCR, 1 µM 33mer gliadin", "setting": "[1]", "value": 9.48, "unit": "ng/mL"},
      {"measurement": "IC50 (ng/mL), BC hordein TCR, 250 nM BC hordein", "setting": "[2]", "value": 9.52, "unit": "ng/mL"},
      {"measurement": "IC50 (ng/mL), γ2 gliadin TCR, 250 nM γ2 gliadin", "setting": "[3]", "value": 252, "unit": "ng/mL"},
      {"measurement": "IC50 (ng/mL), α1a gliadin TCR, 250 nM 33mer gliadin", "setting": "[4]", "value": 0.46, "unit": "ng/mL"},
      {"measurement": "IC50 (ng/mL), α1b gliadin TCR, 250 nM 33mer gliadin", "setting": "[4]", "value": 1.33, "unit": "ng/mL"},
      {"measurement": "IC50 (ng/mL), α2 gliadin TCR, 250 nM 33mer gliadin", "setting": "[4]", "value": 0.29, "unit": "ng/mL"},
      {"measurement": "IC50 (ng/mL), ω1 gliadin TCR, 25 µM ω1/2 gliadin", "setting": "[5]", "value": 1.62, "unit": "ng/mL"},
      {"measurement": "IC50 (ng/mL), ω2 gliadin TCR, 250 nM ω1/2 gliadin", "setting": "[5]", "value": 0.18, "unit": "ng/mL"},
      {"measurement": "IC50 (ng/mL), γ4d gliadin TCR, 100 µM γ4d gliadin", "setting": "[6]", "value": 8.69, "unit": "ng/mL"},
      {"measurement": "IC50 (ng/mL), γ3 gliadin TCR, 100 µM γ3 gliadin", "setting": "[7]", "value": 1.55, "unit": "ng/mL"},
      {"measurement": "IC50 (ng/mL), γ1 gliadin TCR, 250 nM γ1 gliadin", "setting": "[8]", "value": 1.62, "unit": "ng/mL"},
      {"measurement": "IC50 (ng/mL), γ4a gliadin TCR, 25 µM γ4a gliadin", "setting": "[9]", "value": 636, "unit": "ng/mL"}
    ]},
    {"binder": "B2", "values": [
      {"measurement": "IC50 (ng/ml)_HLA-DQ2.2, α1a gliadin TCR, 25 µM 33mer gliadin", "setting": "[1]", "value": 1.16, "unit": "ng/mL"},
      {"measurement": "IC50 (ng/ml)_HLA-DQ2.2, α2 gliadin TCR, 1 µM 33mer gliadin", "setting": "[1]", "value": 6.51, "unit": "ng/mL"},
      {"measurement": "IC50 (ng/mL), BC hordein TCR, 250 nM BC hordein", "setting": "[2]", "value": 11.4, "unit": "ng/mL"},
      {"measurement": "IC50 (ng/mL), γ2 gliadin TCR, 250 nM γ2 gliadin", "setting": "[3]", "value": 785, "unit": "ng/mL"},
      {"measurement": "IC50 (ng/mL), α1a gliadin TCR, 250 nM 33mer gliadin", "setting": "[4]", "value": 0.6, "unit": "ng/mL"},
      {"measurement": "IC50 (ng/mL), α1b gliadin TCR, 250 nM 33mer gliadin", "setting": "[4]", "value": 1.81, "unit": "ng/mL"},
      {"measurement": "IC50 (ng/mL), α2 gliadin TCR, 250 nM 33mer gliadin", "setting": "[4]", "value": 0.33, "unit": "ng/mL"},
      {"measurement": "IC50 (ng/mL), ω1 gliadin TCR, 25 µM ω1/2 gliadin", "setting": "[5]", "value": 1.96, "unit": "ng/mL"},
      {"measurement": "IC50 (ng/mL), ω2 gliadin TCR, 250 nM ω1/2 gliadin", "setting": "[5]", "value": 0.2, "unit": "ng/mL"},
      {"measurement": "IC50 (ng/mL), γ4d gliadin TCR, 100 µM γ4d gliadin", "setting": "[6]", "value": 9.23, "unit": "ng/mL"},
      {"measurement": "IC50 (ng/mL), γ3 gliadin TCR, 100 µM γ3 gliadin", "setting": "[7]", "value": 1.21, "unit": "ng/mL"},
      {"measurement": "IC50 (ng/mL), γ1 gliadin TCR, 250 nM γ1 gliadin", "setting": "[8]", "value": 1.9, "unit": "ng/mL"},
      {"measurement": "IC50 (ng/mL), γ4a gliadin TCR, 25 µM γ4a gliadin", "setting": "[9]", "value": 1250, "unit": "ng/mL"}
    ]},
    {"binder": "B3", "values": [
      {"measurement": "IC50 (ng/ml)_HLA-DQ2.2, α1a gliadin TCR, 25 µM 33mer gliadin", "setting": "[1]", "value": 1.62, "unit": "ng/mL"},
      {"measurement": "IC50 (ng/ml)_HLA-DQ2.2, α2 gliadin TCR, 1 µM 33mer gliadin", "setting": "[1]", "value": 4.6, "unit": "ng/mL"},
      {"measurement": "IC50 (ng/mL), BC hordein TCR, 250 nM BC hordein", "setting": "[2]", "value": 25.2, "unit": "ng/mL"},
      {"measurement": "IC50 (ng/mL), γ2 gliadin TCR, 250 nM γ2 gliadin", "setting": "[3]", "value": 280, "unit": "ng/mL"},
      {"measurement": "IC50 (ng/mL), α1a gliadin TCR, 250 nM 33mer gliadin", "setting": "[4]", "value": 0.63, "unit": "ng/mL"},
      {"measurement": "IC50 (ng/mL), α1b gliadin TCR, 250 nM 33mer gliadin", "setting": "[4]", "value": 1.42, "unit": "ng/mL"},
      {"measurement": "IC50 (ng/mL), α2 gliadin TCR, 250 nM 33mer gliadin", "setting": "[4]", "value": 0.53, "unit": "ng/mL"},
      {"measurement": "IC50 (ng/mL), ω1 gliadin TCR, 25 µM ω1/2 gliadin", "setting": "[5]", "value": 3.19, "unit": "ng/mL"},
      {"measurement": "IC50 (ng/mL), ω2 gliadin TCR, 250 nM ω1/2 gliadin", "setting": "[5]", "value": 0.49, "unit": "ng/mL"},
      {"measurement": "IC50 (ng/mL), γ4d gliadin TCR, 100 µM γ4d gliadin", "setting": "[6]", "value": 27.8, "unit": "ng/mL"},
      {"measurement": "IC50 (ng/mL), γ3 gliadin TCR, 100 µM γ3 gliadin", "setting": "[7]", "value": 4.84, "unit": "ng/mL"},
      {"measurement": "IC50 (ng/mL), γ1 gliadin TCR, 250 nM γ1 gliadin", "setting": "[8]", "value": 5.85, "unit": "ng/mL"},
      {"measurement": "IC50 (ng/mL), γ4a gliadin TCR, 25 µM γ4a gliadin", "setting": "[9]", "value": 1980, "unit": "ng/mL"}
    ]}
  ]
}
